How the values were obtained:
[1] = system: differentiated PC12 cells; conditions: cited from earlier work
[2] = system: wild type (WT) mouse brain slices; conditions: cited from earlier work
Experimental: The uptake of ^125I-Aβ40 in WT mouse brain slices at 4 or 37°C was determined following 15 min incubation in oxygenated KRB containing 5–900 ng/ml (0.02–3.5 µCi/ml) concentrations of ^125I-Aβ40. The 15 min incubation time was selected based on our earlier observations that ^125I-Aβ40 uptake in the brain slices was linear up to 15 mi ...

[3] = system: bovine brain microvascular endothelial (BBME) cells; assay: Cellular uptake by flow cytometry in BBME cells; conditions: F-Aβ40 and AF633-Trf simultaneously, cells trypsinized
Experimental: Bovine brain microvascular endothelial (BBME) cells were obtained frozen from Cell Applications Inc. (San Diego, CA) and were grown in 75 cm^2 cell culture flasks coated with collagen. The growth medium was made of equal parts DMEM and F-12 Ham nutrient mix containing amphotericin B (2.5 µg/ml), HEPES (10 mM), donor horse serum (10%), penicillin (100 units/ml), and gentamicin sulphate (15 µm/ml). After reaching 70–80% confluency, the cells were harvested, seeded (80,000 cells/cm^2) on six-well cell culture plates coated with 0.01% rat tail collagen, and grown under 5% CO2 at 37°C.
(§1) In addition, flow cytometry studies were conducted to quantify the uptake of F-Aβ40 or F-Aβ42 and AF633-Trf by PC12 cells and BBME cells at 4°C or under ATP depleted conditions. At the end of these flow cytometry experiments, the cells were washed three times with ice-cold PBS, trypsinized, and centrifuged at 2000 ×g. The cell pellet was washed with and re-suspended in ice cold PBS, and analyzed.
(§2) FACScan (Becton Dickinson FACS canto, San Jose, CA) was equipped with 488 nm laser and 530/30 band-pass filter to analyze F-Aβ40 or F-Aβ42 as well as 633 nm laser and 660/20 band-pass filter to analyze AF633-Trf. […] The cellular fluorescence from this cell population was presented as histograms along with relevant statistical values such as geometric mean and coefficient of variance.

[4] = system: differentiated PC12 cells
[5] = system: differentiated PC12 cells; assay: Cellular uptake and localization by microscopy in differentiated PC12 cells; conditions: F-Aβ40 and AF633-Trf co-incubated, confocal
[6] = system: differentiated PC12 cells; assay: Cellular uptake by flow cytometry in differentiated PC12 cells; conditions: for Uptake at 4°C versus 37°C (histograms of cellular fluorescence), F-Aβ42 experiment: 15 µg/ml F-Aβ42 and 20 µg/ml AF633-Trf, 30 min, cells trypsinized
Experimental: Rat PC12 cells were plated on glass coverslips or coverslip-bottomed dishes and cultured in DMEM supplemented with: 10% fetal bovine serum, 5% horse serum, 4 mM glutamine, 200 units/ml penicillin, 200 µg/ml streptomycin, and 100 ng/ml nerve growth factor (NGF) (Harlan, Indianapolis, IN) at 37°C under 5% CO2. Uptake studies were conducted 5–7 days after plating, when the cells were well differentiated and the neurite growth was prominent.
The PC12 cells were dispersed in growth medium containing 100 ng/ml NGF (Harlan Bioproducts, Indianapolis, IN) and seeded at a density of 50,000/well in 6-well plates. On the seventh day, following sets of experiments were conducted on the differentiated PC-12 cells:
• To determine the linearity of F-Aβ40 uptake, PC-12 cells were pre-incubated in serum free DMEM for 30 min at 37°C and then incubated with DMEM solution containing 3–15 µg/ml F-Aβ40 for 30 min at 37°C. • To determine the saturability of F-Aβ40 uptake, the PC-12 cells were pre-incubated in 150 µg/ml of unlabeled Aβ40 for 30 min at 37°C, followed by a 30 min incubation in the same solution spiked with 15 µg/ml F-Aβ40.
At the end of these experiments, the cells were dissociated with trypsin and centrifuged at 2000 ×g. The cell pellet was washed with and re-suspended in ice cold PBS and analyzed by flow cytometry.
To examine the effect of temperature and cellular energy on the internalization of F-Aβ40 and F-Aβ42, the uptake studies were conducted at 4°C or under ATP depleted conditions. In the studies conducted at 4°C, steps outlined previously to investigate clathrin mediated endocytosis were repeated, but at 4°C. In ATP depletion studies, the PC12 cells or RPH neurons were pre-incubated for 30 min in glucose free DMEM containing 0.1% sodium azide and 50 mM 2-deoxy-D-glucose followed by the incubation with glucose free DMEM containing 20 µg/ml AF633-Trf and 15 µg/ml F-Aβ40 for 30 min at 37°C.
as §1, §2

125I-Aβ40: human Aβ40 labeled with 125I using the chloramine-T procedure
Dependence of internalization by differentiated PC12 cells on donor concentration [1]: linearly dependent upon the donor concentration
Internalization by differentiated PC12 cells at 4°C [1]: internalized even at 4 °C
Time course of uptake in brain slices [2]: linear up to 15 min

AF633-Trf: Alexa Fluor 633 labeled transferrin, a clathrin mediated endocytosis marker [reference compound]
Cellular uptake in BBME cells at 4°C compared to 37°C (fluorescence intensities) [3]: decreased significantly
Uptake in ATP depleted cells versus normal cells (microscopy) [4]: no detectable
Cellular location after 15 min incubation [5]: juxta-nuclear region
Uptake at 4°C versus 37°C (histograms of cellular fluorescence), F-Aβ42 experiment [6]: significantly lower

F-Aβ40: fluorescein labeled human Aβ40
Cellular uptake in BBME cells at 4°C compared to 37°C (fluorescence intensities) [3]: decreased significantly
Uptake in cells treated with filipin, inhibitor of caveolae mediated endocytosis [4]: not significantly affected
Cellular location after 15 min incubation [5]: mainly confined to the cell membrane
Cellular location at the end of 45 min incubation ([5]; 45 min): appeared to move into the cytosol
Intensity in the cells by the end of 60 min incubation ([5]; 60 min): increased substantially
Fluorescence intensity on co-incubation with unlabeled Aβ40 compared to F-Aβ40 alone (saturability) ([6]; 150 µg/ml unlabeled Aβ40 + 15 µg/ml F-Aβ40 vs 15 µg/ml F-Aβ40 alone, 37°C): decreased
Dependence of accumulation on donor concentration ([6]; donor concentrations 3-15 µg/ml, 30 min at 37°C): linear with the donor concentrations

F-Aβ42: fluorescein labeled Aβ42
Uptake at 4°C versus 37°C (histograms of cellular fluorescence), F-Aβ42 experiment [6]: not significantly different

Reference: article PMC2645672, “Mechanism of Neuronal versus Endothelial Cell Uptake of Alzheimer's Disease Amyloid β Protein” (PLoS ONE, 2009)
